Results taken from patent publication US20260055182A1 (CIS BIOPHARMA, published 2026).
Positions count from the first letter of the chain named. In names and notes the source's numbering stands.

B1: CE7-variant1 (antibody, V domains shown)
VH: QVQLVQSGAEVKKPGASVKVSCKASGYTFTGYWMHWVRQAPGQGLEWIGEINPSNGRTNYNERFKSRVTLTVDKSISTAYMELSRLRSDDTAVYFCARDYYGTSYNFDYWGQGTLVTVSS
VL: DIQMTQSPSSLSASVGDRVTITCKANEDINNRLAWYQQKPGKAPKLLISGATNLVTGVPSRFSGSGSGKDYTLTISSLQPEDFATYYCQQYWSTPFTFGQGTKLEIKR
notes: Human IgG1 kappa, L234A L235A P331S; also called CE7-12-VHA-1NL1-VLA; humanized variant 1
B2: CE7-variant13 (antibody, V domains shown)
VH: QVQLQQWGAGLLKPSETLSLTCAAYGYTFTGYWMHWIRQPPGKGLEWIGEINPSNGRTNYNERLKSRVTLSVDKSKNQASLKLSSVTAADTAVYFCARDYYGTSYNFDYWGQGTLVTVSS
VL: B1 VL
notes: Human IgG1 kappa, L234A L235A P331S; also called CE7-434-VHA-1NL1-VLA; humanized variant 13
B3: CE7-variant5 (antibody, V domains shown)
VH: B1 VH
VL: EIVMTQSPATLSVSPGERATLSCKANEDINNRLAWYQQKPGQAPRLLISGATNLVTGIPARFSGSGSGKEYTLTISSLQSEDFAVYYCQQYWSTPFTFGQGTKLEIKR
notes: Human IgG1 kappa, L234A L235A P331S; also called CE7-12-VHA-315-VLA; humanized variant 5
B4: CE7-variant14 (antibody, V domains shown)
VH: B2 VH
VL: B1 VL with K24R
notes: Human IgG1 kappa, L234A L235A P331S; also called CE7-434-VHA-1NL1-VLB; humanized variant 14
B5: CE7-variant16 (antibody, V domains shown)
VH: B2 VH
VL: B1 VL with K24Q, L73F, F83I
notes: Human IgG1 kappa, L234A L235A P331S; also called CE7-434-VHA-133-VLB; humanized variant 16
B6: CE7-variant19 (antibody, V domains shown)
VH: B1 VH with K65Q, S66G, F95Y
VL: B1 VL with K24R, T52S, T56S
notes: CE7-1-2-VHB + CE7-1-NL1-VLC; human IgG1 kappa, L234A L235A P331S N297A (aglycosylated); also called humanized variant 19
B7: CE7-variant25 (antibody, V domains shown)
VH: B1 VH with I48M, R63K, K65Q, S66G, F95Y
VL: B1 VL
notes: CE7-1-2-VHD + CE7-1-NL1-VLA; human IgG1 kappa, L234A L235A P331S N297A (aglycosylated); also called humanized variant 25
B8: CE7-variant15 (antibody, V domains shown)
VH: B2 VH
VL: B1 VL with F83I
notes: Human IgG1 kappa, L234A L235A P331S; also called CE7-434-VHA-133-VLA; humanized variant 15
B9: CE7-variant24 (antibody, V domains shown)
VH: B1 VH with R63K, K65Q, S66G, F95Y
VL: B1 VL with K24R, N26S, E27Q, D28G, T52S, T56S
notes: CE7-1-2-VHC + CE7-1-NL1-VLD; human IgG1 kappa, L234A L235A P331S N297A (aglycosylated); also called humanized variant 24
B10: CE7-variant9 (antibody, V domains shown)
VH: B1 VH with K65Q, S66G, F95Y
VL: B1 VL with F83I
notes: Human IgG1 kappa, L234A L235A P331S; also called CE7-12-VHB-133-VLA; humanized variant 9
B11: CE7-variant8 (antibody, V domains shown)
VH: B1 VH with K65Q, S66G, F95Y
VL: B1 VL with K24R
notes: Human IgG1 kappa, L234A L235A P331S; also called CE7-12-VHB-1NL1-VLB; humanized variant 8
B12: CE7-variant12 (antibody, V domains shown)
VH: B1 VH with K65Q, S66G, F95Y
VL: B3 VL with K24R, Y71F
notes: Human IgG1 kappa, L234A L235A P331S; also called CE7-12-VHB-315-VLB; humanized variant 12
B13: CE7-variant2 (antibody, V domains shown)
VH: B1 VH
VL: B1 VL with K24R
notes: Human IgG1 kappa, L234A L235A P331S; also called CE7-12-VHA-1NL1-VLB; humanized variant 2
B14: CE7-variant10 (antibody, V domains shown)
VH: B1 VH with K65Q, S66G, F95Y
VL: B1 VL with K24Q, L73F, F83I
notes: Human IgG1 kappa, L234A L235A P331S; also called CE7-12-VHB-133-VLB; humanized variant 10
B15: CE7-variant20 (antibody, V domains shown)
VH: B1 VH with K65Q, S66G, F95Y
VL: B1 VL with K24R, N26S, E27Q, D28G, T52S, T56S
notes: CE7-1-2-VHB + CE7-1-NL1-VLD; human IgG1 kappa, L234A L235A P331S N297A (aglycosylated); also called humanized variant 20
B16: CE7-variant21 (antibody, V domains shown)
VH: B1 VH with R63K, K65Q, S66G, F95Y
VL: B1 VL
notes: CE7-1-2-VHC + CE7-1-NL1-VLA; human IgG1 kappa, L234A L235A P331S N297A (aglycosylated); also called humanized variant 21
B17: CE7-variant23 (antibody, V domains shown)
VH: B1 VH with R63K, K65Q, S66G, F95Y
VL: B1 VL with K24R, T52S, T56S
notes: CE7-1-2-VHC + CE7-1-NL1-VLC; human IgG1 kappa, L234A L235A P331S N297A (aglycosylated); also called humanized variant 23
B18: CE7-variant6 (antibody, V domains shown)
VH: B1 VH
VL: B3 VL with K24R, Y71F
notes: Human IgG1 kappa, L234A L235A P331S; also called CE7-12-VHA-315-VLB; humanized variant 6
B19: CE7-variant4 (antibody)
heavy: QVQLVQSGAEVKKPGASVKVSCKASGYTFTGYWMHWVRQAPGQGLEWIGEINPSNGRTNYNERFKSRVTLTVDKSISTAYMELSRLRSDDTAVYFCARDYYGTSYNFDYWGQGTLVTVSSASTKGPSVFPLAPSSKSTSGGTAALGCLVKDYFPEPVTVSWNSGALTSGVHTFPAVLQSSGLYSLSSVVTVPSSSLGTQTYICNVNHKPSNTKVDKKVEPKSCDKTHTCPPCPAPEAAGGPSVFLFPPKPKDTLMISRTPEVTCVVVDVSHEDPEVKFNWYVDGVEVHNAKTKPREEQYNSTYRVVSVLTVLHQDWLNGKEYKCKVSNKALPASIEKTISKAKGQPREPQVYTLPPSREEMTKNQVSLTCLVKGFYPSDIAVEWESNGQPENNYKTTPPVLDSDGSFFLYSKLTVDKSRWQQGNVFSCSVMHEALHNHYTQKSLSLSPGK
light: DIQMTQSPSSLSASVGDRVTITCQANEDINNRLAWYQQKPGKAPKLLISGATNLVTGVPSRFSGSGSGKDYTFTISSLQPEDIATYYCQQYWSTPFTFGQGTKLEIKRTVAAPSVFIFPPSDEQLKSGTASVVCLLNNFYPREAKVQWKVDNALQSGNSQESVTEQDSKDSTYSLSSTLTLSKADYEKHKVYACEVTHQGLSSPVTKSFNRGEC
notes: Human IgG1 kappa, L234A L235A P331S; also called CE7-12-VHA-133-VLB; humanized variant 4
B20: CE7-variant22 (antibody, V domains shown)
VH: B1 VH with R63K, K65Q, S66G, F95Y
VL: B1 VL with K24R
notes: CE7-1-2-VHC + CE7-1-NL1-VLB; human IgG1 kappa, L234A L235A P331S N297A (aglycosylated); also called humanized variant 22
B21: CE7-variant11 (antibody, V domains shown)
VH: B1 VH with K65Q, S66G, F95Y
VL: B3 VL
notes: Human IgG1 kappa, L234A L235A P331S; also called CE7-12-VHB-315-VLA; humanized variant 11
B22: CE7-variant18 (antibody)
heavy: QVQLQQWGAGLLKPSETLSLTCAAYGYTFTGYWMHWIRQPPGKGLEWIGEINPSNGRTNYNERLKSRVTLSVDKSKNQASLKLSSVTAADTAVYFCARDYYGTSYNFDYWGQGTLVTVSSASTKGPSVFPLAPSSKSTSGGTAALGCLVKDYFPEPVTVSWNSGALTSGVHTFPAVLQSSGLYSLSSVVTVPSSSLGTQTYICNVNHKPSNTKVDKKVEPKSCDKTHTCPPCPAPEAAGGPSVFLFPPKPKDTLMISRTPEVTCVVVDVSHEDPEVKFNWYVDGVEVHNAKTKPREEQYNSTYRVVSVLTVLHQDWLNGKEYKCKVSNKALPASIEKTISKAKGQPREPQVYTLPPSREEMTKNQVSLTCLVKGFYPSDIAVEWESNGQPENNYKTTPPVLDSDGSFFLYSKLTVDKSRWQQGNVFSCSVMHEALHNHYTQKSLSLSPGK
light: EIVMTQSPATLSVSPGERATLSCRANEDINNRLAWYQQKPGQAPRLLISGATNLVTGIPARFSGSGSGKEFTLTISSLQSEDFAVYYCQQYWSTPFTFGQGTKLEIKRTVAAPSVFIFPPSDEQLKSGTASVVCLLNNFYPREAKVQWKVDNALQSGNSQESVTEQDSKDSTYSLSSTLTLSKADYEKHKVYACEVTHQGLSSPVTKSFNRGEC
notes: Human IgG1 kappa, L234A L235A P331S; also called CE7-434-VHA-315-VLB; humanized variant 18
B23: CE7-variant17 (antibody, V domains shown)
VH: B2 VH
VL: B3 VL
notes: Human IgG1 kappa, L234A L235A P331S; also called CE7-434-VHA-315-VLA; humanized variant 17
B24: LV1 (antibody, V domains shown)
VH: QVQLQQPGAELVKPGASVKLSCKASGYTFTGYYMHWVKQRPGHGLEWIGEINPSNGRTNYNERFKSKATLTVDKSSTTAFMQLSGLTSEDSAVYFCARDYYGTSYNFDYWGQGTTLTVSS
VL: DIQMTQSSSSFSVSLGDRVTITCKANEDINNRLAWYQQTPGNSPRLLISGATNLVTGVPSRFSGSGSGKDYTLTITSLQAEDFATYYCQQYWSTPFTFGSGTELEIKR
notes: CE7-VH-chimeric-WH33Y + CE7-VL-chimeric; chimeric CE7, human IgG1 kappa, L234A L235A P331S N297A; also called liability variant 1
B25: LV6 (antibody, V domains shown)
VH: B24 VH with Y33W
VL: B24 VL with N31A
notes: CE7-VH-chimeric + CE7-VL-chimeric-NL31A; chimeric CE7, human IgG1 kappa, L234A L235A P331S N297A; also called liability variant 6
B26: LV7 (antibody, V domains shown)
VH: B24 VH with Y33W
VL: B24 VL with W92Y
notes: CE7-VH-chimeric + CE7-VL-chimeric-WL92Y; chimeric CE7, human IgG1 kappa, L234A L235A P331S N297A; also called liability variant 7
B27: LV5 (antibody, V domains shown)
VH: B24 VH with Y33W
VL: B24 VL with N31L
notes: CE7-VH-chimeric + CE7-VL-chimeric-NL31L; chimeric CE7, human IgG1 kappa, L234A L235A P331S N297A; also called liability variant 5
B28: LV3 (antibody, V domains shown)
VH: B24 VH with Y33L
VL: B24 VL
notes: CE7-VH-chimeric-WH33L + CE7-VL-chimeric; chimeric CE7, human IgG1 kappa, L234A L235A P331S N297A; also called liability variant 3
B29: LV8 (antibody, V domains shown)
VH: B24 VH with Y33W
VL: B24 VL with W92F
notes: CE7-VH-chimeric + CE7-VL-chimeric-WL92F; chimeric CE7, human IgG1 kappa, L234A L235A P331S N297A; also called liability variant 8
B30: LV2 (antibody, V domains shown)
VH: B24 VH with Y33F
VL: B24 VL
notes: CE7-VH-chimeric-WH33F + CE7-VL-chimeric; chimeric CE7, human IgG1 kappa, L234A L235A P331S N297A; also called liability variant 2
B31: LV4 (antibody, V domains shown)
VH: B24 VH with Y33W, G56A
VL: B24 VL
notes: CE7-VH-chimeric-GH55A + CE7-VL-chimeric; chimeric CE7, human IgG1 kappa, L234A L235A P331S N297A; also called liability variant 4
B32: CE7-variant4-AG (antibody)
heavy: B19 heavy with N300A
light: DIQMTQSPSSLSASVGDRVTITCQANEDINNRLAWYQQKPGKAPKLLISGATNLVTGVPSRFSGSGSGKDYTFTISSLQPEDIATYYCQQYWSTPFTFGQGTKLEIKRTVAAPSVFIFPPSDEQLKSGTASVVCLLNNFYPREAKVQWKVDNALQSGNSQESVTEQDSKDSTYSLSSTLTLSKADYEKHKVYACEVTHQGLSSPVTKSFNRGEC
notes: CE7-1-2-VHA (L234A L235A P331S N297A) + CE7-1-33-VLB, aglycosylated human IgG1 kappa; also called CE7-varant4-AG

These binders were tested against T1, L1-CAM recombinant protein (His Tag), human (human, UniProt P32004 20-1120) (assay: ELISA, human L1-CAM coated at 2 µg/ml).
T1 construct: Bought protein; also called CD171; human L1-CAM; not shown: His tag
T1 sequence (P32004 20-1120 limits assumed): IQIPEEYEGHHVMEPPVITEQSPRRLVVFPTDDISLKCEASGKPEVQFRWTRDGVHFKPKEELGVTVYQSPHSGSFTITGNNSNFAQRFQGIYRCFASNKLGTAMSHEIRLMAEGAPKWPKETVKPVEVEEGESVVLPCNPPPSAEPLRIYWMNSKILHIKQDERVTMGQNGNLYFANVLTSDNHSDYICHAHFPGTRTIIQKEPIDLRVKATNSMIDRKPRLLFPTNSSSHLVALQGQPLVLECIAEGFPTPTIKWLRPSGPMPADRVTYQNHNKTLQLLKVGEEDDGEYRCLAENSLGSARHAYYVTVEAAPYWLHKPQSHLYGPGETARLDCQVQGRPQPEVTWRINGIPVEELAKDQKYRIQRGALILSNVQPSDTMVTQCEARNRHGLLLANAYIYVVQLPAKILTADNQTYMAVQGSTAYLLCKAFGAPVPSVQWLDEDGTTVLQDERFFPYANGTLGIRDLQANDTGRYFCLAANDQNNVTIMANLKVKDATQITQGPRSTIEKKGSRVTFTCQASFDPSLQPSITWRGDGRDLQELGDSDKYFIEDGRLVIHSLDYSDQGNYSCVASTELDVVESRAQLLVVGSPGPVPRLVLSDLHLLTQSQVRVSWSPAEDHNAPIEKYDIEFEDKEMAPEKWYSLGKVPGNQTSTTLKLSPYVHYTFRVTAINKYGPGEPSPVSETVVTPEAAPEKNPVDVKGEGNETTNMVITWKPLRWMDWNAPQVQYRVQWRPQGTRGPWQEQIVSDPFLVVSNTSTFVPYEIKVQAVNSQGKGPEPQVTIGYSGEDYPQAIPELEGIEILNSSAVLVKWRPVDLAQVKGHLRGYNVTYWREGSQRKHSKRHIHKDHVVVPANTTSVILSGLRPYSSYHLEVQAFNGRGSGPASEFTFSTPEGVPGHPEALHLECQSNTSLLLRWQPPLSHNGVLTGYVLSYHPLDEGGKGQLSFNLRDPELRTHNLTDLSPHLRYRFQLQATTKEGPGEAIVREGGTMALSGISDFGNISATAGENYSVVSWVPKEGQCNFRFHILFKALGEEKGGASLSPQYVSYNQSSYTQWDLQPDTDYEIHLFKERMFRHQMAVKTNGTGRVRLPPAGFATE
For B1, the EC50 was 0.0288 µg/mL. Work on B2 yielded an EC50 of 0.05 µg/mL. In the case of B3, the EC50 is reported as 0.0282 µg/mL. For B4, the EC50 was 0.0157 µg/mL. B5 gave an EC50 of 0.0132 µg/mL. Work on B6 yielded an EC50 of 0.0335 µg/mL. For B7, the EC50 was 0.0272 µg/mL. In the case of B8, the EC50 is reported as 0.0112 µg/mL. With B9 the EC50 was 0.0396 µg/mL. B10 showed an EC50 of 0.0197 µg/mL. With B11 the EC50 was 0.0129 µg/mL. B12 showed an EC50 of 0.0126 µg/mL. B13 showed an EC50 of 0.0128 µg/mL. B14 was tested, and the EC50 was 0.0136 µg/mL. Binder B15 has an EC50 of 0.0317 µg/mL. For B16, the EC50 was 0.0299 µg/mL. B17 was tested, and the EC50 was 0.037 µg/mL. In the case of B18, the EC50 is reported as 0.0255 µg/mL. For B19, the EC50 was 0.012 µg/mL. B20 was tested, and the EC50 was 0.024 µg/mL. Binder B21 has an EC50 of 0.0148 µg/mL. Binder B22 has an EC50 of 0.00968 µg/mL. B23 gave an EC50 of 0.0108 µg/mL. B24 showed an EC50 of 0.0362 µg/mL. For B25, the EC50 was 0.0268 µg/mL. Work on B26 yielded an EC50 of 0.0246 µg/mL. B27 gave an EC50 of 0.0318 µg/mL. Binder B28 has an EC50 of 0.0328 µg/mL. Work on B29 yielded an EC50 of 0.0335 µg/mL. Work on B30 yielded an EC50 of 0.0459 µg/mL. B31 was tested, and the EC50 was 0.0394 µg/mL.

The binders below were run against T1, L1-CAM recombinant protein (His Tag), … (assay: SPR (Biacore 8K); L1-CAM immobilised on CM5 chip, antibody as analyte).
Experimental: In the SPR experiment, antigen is immobilized on sensor chip and solutions containing antibody at various concentrations are flown over the antigen. real time measurement of kinetics parameters is performed, including their on/off rates (ka and kd). Based thereon, binding affinity constant KD is determined.
B32 showed a Kd of 0.664 pM, a koff of 8.18e-07 s⁻¹ and a kon of 1.23e+06 M⁻¹ s⁻¹.
